This assay addresses uncleaved full-length membrane-anchored HIV-1 JR-FL Env(-) glycoprotein (HIV-1 (strain JR-FL)). Kind of assay: cryo-EM structure.

The results in this text go back to paper doi:10.1101/2021.03.28.437443.

In general, stoichiometry N refers to the number of molecules, sites or subunits per partner or assembly. Substance “uncleaved full-length membrane-anchored HIV-1 JR-FL Env(-) glycoprotein (natural protein)” registered a stoichiometry N of 3.
